{
  "source": "paper PMC1764712",
  "about": "“Recruitment and Activation of RSK2 by HIV-1 Tat” (PLoS ONE, 2007)",
  "key": {"[1]": {"molecular_target": "Endogenous RSK2 of Cos7 cells (African green monkey (endogenous in Cos7))"}, "[2]": {"molecular_target": "T1, Full-length human recombinant RSK2 isolated from insect cells (human, UniProt P51812 1-740)", "T1 construct": "Human ribosomal S6 protein kinase 2 (RSK2), full length; also called full-length recombinant RSK2; source: bought: Upstate Biotechnology (isolated from insect cells)", "T1 sequence (P51812 whole entry)": "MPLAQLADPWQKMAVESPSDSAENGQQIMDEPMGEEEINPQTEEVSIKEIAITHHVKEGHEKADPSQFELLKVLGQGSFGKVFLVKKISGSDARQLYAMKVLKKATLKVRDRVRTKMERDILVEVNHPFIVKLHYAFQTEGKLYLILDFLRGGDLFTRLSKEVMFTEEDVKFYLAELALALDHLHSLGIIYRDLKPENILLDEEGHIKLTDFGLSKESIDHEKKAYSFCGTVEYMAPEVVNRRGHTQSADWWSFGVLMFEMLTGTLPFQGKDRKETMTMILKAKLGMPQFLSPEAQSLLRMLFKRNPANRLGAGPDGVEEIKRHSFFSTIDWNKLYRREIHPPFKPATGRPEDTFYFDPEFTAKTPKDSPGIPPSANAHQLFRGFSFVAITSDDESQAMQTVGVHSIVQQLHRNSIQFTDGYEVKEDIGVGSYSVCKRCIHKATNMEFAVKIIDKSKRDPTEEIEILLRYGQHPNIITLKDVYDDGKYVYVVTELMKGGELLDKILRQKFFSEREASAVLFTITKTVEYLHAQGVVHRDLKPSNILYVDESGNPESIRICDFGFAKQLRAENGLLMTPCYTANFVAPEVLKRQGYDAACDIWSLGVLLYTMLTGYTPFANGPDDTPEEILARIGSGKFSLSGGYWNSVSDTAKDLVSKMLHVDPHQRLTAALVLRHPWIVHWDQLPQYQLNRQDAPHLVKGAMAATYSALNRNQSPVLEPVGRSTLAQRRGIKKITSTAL", "experiment": "pull-down; GST proteins immobilised on glutathione-sepharose, incubated with 200 ng human recombinant RSK2; binding buffer 20 mM Hepes pH 7.9, 1% Triton, 0.5% NP-40, 200 mM KCl; washes with 1 M KCl; western blot with α-RSK2", "settings": "both partners purified"}},
  "data": [
    {"molecule": "Full-length Tat (101 amino acids) bearing a C-terminal FLAG tag (natural protein)", "values": [
      {"measurement": "S6 peptide phosphorylation assay of endogenous RSK2 immunoprecipitated from Cos7 cells transfected with Tat", "setting": "[1]", "value": 3, "unit": "fold"}
    ]},
    {"molecule": "GST-Tat 1–86 (natural protein, HIV-1 Tat amino acids 1-86; also called GST-Tat (amino acids 1–86); recombinant Tat (amino acids 1–86) fused to the C-terminus of GST; source: E. coli BL21, purified (glutathione-sepharose); not shown: GST, N-terminal, kept) MEPVDPRLEPWKHPGSQPKTACTNCYCKKCCFHCQVCFITKALGISYGRKKRRQRRRAHQNSQTHQASLSKQPTSQPRGDPTGPKE", "values": [
      {"measurement": "binding result", "setting": "[2]", "value": "binds"}
    ]}
  ]
}
